{
  "source": "paper PMC7350312",
  "target": "HIV-1 CRF07_BC gp120 recombinant protein (HIV-1 CRF07_BC)",
  "assay": "SPR; format not shown (protocol in the supplement)",
  "data": [
    {"substance": "recombinant human galectin-3 (from UniProt P17931 1-250)", "values": [
      {"measurement": "Kd", "value": 7, "unit": "nM"}
    ]}
  ]
}
